{"source": "patent US20040062769A1", "about": "(US Dept. of Health and Human Services, published 2004)", "binders": {"B1": {"name": "human CD36 expressed on CHO-745 cells (receptor)", "chain": "GCDRNCGLIAGAVIGAVLAVFGGILMPVGDLLIQKTIKKQVVLEEGTIAFKNWVKTGTEVYRQFWIFDVQNPQEVMMNSSNIQVKQRGPYTYRVRFLAKENVTQDAEDNTVSFLQPNGAIFEPSLSVGTEADNFTVLNLAVAAASHIYQNQFVQMILNSLINKSKSSMFQVRTLRELLWGYRDPFLSLVPYPVTTTVGLFYPYNNTADGVYKVFNGKDNISKVAIIDTYKGKRNLSYWESHCDMINGTDAASFPPFVEKSQVLQFFSSDICRSIYAVFESDVNLKGIPVYRFVLPSKAFASPVENPDNYCFCTEKIISKNCTSYGVLDISKCKEGRPVYISLPHFLYASPDVSEPIDGLNPNEEEHRTYLDIEPITGFTLQFAKRLQVNLLVKPSEKIQVLKNLKRNYIVPILWLNETGTIGDEKANMFRSQVTGKINLLGLIEMILLSVGVVMFVAFMISYCACRSKTIK", "notes": "whole, on cells; also called CHO^CD36"}}, "target": "T1, FCR3.varCSA protein (Plasmodium falciparum (FCR3 strain), surface iodinated (125I) in the thrombomodulin bead capture)", "T1 construct": "also called FCR3-CSA var", "assay": "cytoadhesion of FCR3-CSA PRBCs to CHO-745 cells expressing CD36 (Table 1)"}
{"binder": "B1", "values": [{"measurement": "binding result", "value": "no binding"}]}
